Tests used:
[1] = Papain activity over time in the absence of aluminium hydroxide; assay type: physicochemical; conditions: 10 μg/mL papain in 50 mM Bis-Tris, 4° C.
Method: Papain was mixed with 50 mM Bis-Tris buffer to a final concentration of 10 μg/mL in a total volume of 500 μL. The mixture was incubated at 4° C. and samples were taken out at 0, 30 and 60 min. The samples were diluted and incubated for 10 min in buffer containing DTT and subsequently activity was measured after addition of substrate. […] Additional loss occurs until the initiation of the enzymatic assay.

[2] = Adsorption of papain to aluminium hydroxide: active enzyme by active site titration with E-64; assay type: biochemical
Method: (§1) After adsorption 500 μL was taken out for further analysis and the rest of the mixture was centrifuged for 10 min at 400 rpm. The rest of the samples analysed follow the flow scheme in FIG. 12. Furthermore a control (Con) containing papain in Bis-Tris buffer in the absence of aluminium hydroxide was prepared.
The active site titration was used to estimate the amount of active enzyme in the different samples. This is in contrast to the protein concentration estimated from A280 which represents the total protein content of the sample.

[3] = Papain enzyme activity fluorescence assay (activity measurements and Michaelis-Menten kinetic), papain/aluminium hydroxide adsorption experiment; assay type: biochemical
Method: After measuring the enzymatic activity the maximal slope of the progress curve was estimated using the software SoftMax® PRO Life Sciences Edition, Molecular Devices, 2001. After estimating the initial velocity of the experiments they were transferred to Prism and analyzed.
as §1
Two types of enzymatic assays were performed: (i) activity measurements using a fixed substrate concentration to evaluate enzyme activity and (ii) Michaelis-Menten kinetic to estimate the kinetic parameters Vmax and KM.
All activity assays were conducted with BisTris buffer, pH 6.5, 5 mM DTT/, mM EDTA and Z-FR-AMC as substrate.

[4] = Adsorption of papain to aluminium hydroxide: protein concentration by A280; assay type: physicochemical; conditions: 100 μg/mL papain, 1.14 mg/mL aluminium hydroxide, 1 h at 4° C.; ANOVA p-value=0.615
Description: The aromatic amino acids tryptophan, tyrosine and phenylalanine absorb ultraviolet light. However only tryptophan and tyrosine absorb at 280 nm and tryptophan absorbs 5 times more light than tyrosine. This is due to the […] transition in the indole ring of tryptophan where phenylalanine and tyrosine contains a phenyl group. The absorbance of a protein is linearly correlated with the amount of tryptophan and tyrosine in the protein, the length of the light path and the concentration of protein. This relationship is named Lambert-Beer's law and is given by: A=ε·l·c where A is the absorbance, ε is the molar absorption coefficient for the protein (determined by the amount of tryptophan and tyrosine in the protein) l is the length of the light path and c is the protein concentration. Thus from an absorbance measurement the concentration of protein can be estimated if the molar absorptivity coefficient is known. • Apparatuses • Lambda 800 UV/VIS Spectrometer, PerkinElmer™ • 100-QS, quartz cuvette, path length 1 cm, Hellma® • Materials and Reagents • 50 mM Bis-Tris pH 6.5, Sigma • 50 mM Tris pH 7.0, Sigma • 50 mM phosphate buffer pH 7.0, Merck • 2% Helmanex solution, Hellma Experimental Procedure
The spectrophotometer was turned on 30 min prior to use for a warm up period. […] After cleaning the cuvette 20 μL of sample was transferred to the cuvette and the absorbance was measured. […]

[5] = Adsorbed: papain adsorbed to aluminium hydroxide (mix 2)
[6] = Control: papain in the absence of aluminium hydroxide
[7] = activity measurements, 30 μM Z-FR-AMC

B1: papain: cysteine protease Car p 1 from the plant Carica papaya, purified, Sigma; chosen as negative control (protein, UniProt P00784 134-345, looked up)
Papain: IPEYVDWRQKGAVTPVKNQGSCGSCWAFSAVVTIEGIIKIRTGNLNEYSEQELLDCDRRSYGCNGGYPWSALQLVAQYGIHYRNTYPYEGVQRYCRSREKGPYAAKTDGVRQVQPYNEGALLYSIANQPVSVVLEAAGKDFQLYRGGIFVGPCGNKVDHAVAAVGYGPNYILIKNSWGTGWGENGYIRIKRGTGNSYGVCGLYTSSFYPVKN
In the case of B1, the “Activity at 60 min lower than at 0 and 30 min (loss of activity)” value [1] is reported as 7%, the “Active papain adsorbed to aluminium hydroxide (Mix3)” value [2] is reported as “approximately 7%” and the “Active papain in solution (Sup1+Sup2)” value [2] is reported as 91%. The “Vmax in Mix3 relative to Mix1” value [3] was 7%, the “Vmax in solution (Sup1+Sup2) relative to Mix1” value [3] was 97% and the Km [3, 5] was 21 µM. For the same molecule, the Vmax [3, 5] was 44.1 ng/mL · s, the “kcat (Vmax/protein concentration, A280)” value [3, 5] was 14.58 s⁻¹ and the “kcat (Vmax/protein concentration, active site titration)” value [3, 5] was 12.18 s⁻¹. For the same molecule, the Vmax [3, 6] was 373.9 ng/mL · s, the “kcat (Vmax/protein concentration, A280)” value [3, 6] was 5.13 s⁻¹ and the “kcat (Vmax/protein concentration, active site titration)” value [3, 6] was 11.41 s⁻¹. For the same molecule, the Km ([3]; Control: papain in the absence of aluminium hydroxide, Z-FR-AMC, pH 6.5) was 22 µM, the “Activity in Mix1 found in solution (Sup1+Sup2)” value [3, 7] was 96% and the “Activity of papain adsorbed to aluminium hydroxide (Mix3)” value [3, 7] was 8%. For the same molecule, the “Difference between KM estimates of samples in presence and absence of aluminium hydroxide” value ([3]; one-way ANOVA p-value=0.999) was “no significant difference”, the “Part of the enzyme not bound to the adjuvant” value ([3]; papain with aluminium hydroxide) was 93% and the “Activity of the control lower than the activity of Mix1” value ([3]; papain without vs with aluminium hydroxide) was 17%. The “Adsorption of papain to aluminium hydroxide (A280, Con vs Sup1)” value [4] was “does not adsorb significantly”.

From US8492099B2, “Method of measuring enzymatic activity of adsorbed allergenic enzyme” (Alk-Abello A/S, priority 2005, dated 2013)
